The values below are quoted from earlier work in PMC10298792.

In one series the target is Bid BH3 (Homo sapiens) (UniProt P55957). Put plainly: ITC. For orientation: Isothermal titration calorimetry measures the heat released or taken up as one component is titrated into another.
For the next series, the target named is Pxt1 BH3 (Homo sapiens) (UniProt Q8NFP0). The series can be described thus: ITC.
Sequence of Pxt1 BH3 (Homo sapiens) (Q8NFP0 76-101): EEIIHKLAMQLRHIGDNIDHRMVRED

Sequence of Bcl-xL (Q07817 whole entry): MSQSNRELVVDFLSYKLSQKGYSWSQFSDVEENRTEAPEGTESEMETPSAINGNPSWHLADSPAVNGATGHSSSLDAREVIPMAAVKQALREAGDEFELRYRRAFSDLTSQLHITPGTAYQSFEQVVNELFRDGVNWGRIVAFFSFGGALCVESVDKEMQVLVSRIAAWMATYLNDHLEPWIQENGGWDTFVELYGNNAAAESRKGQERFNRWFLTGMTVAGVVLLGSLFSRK
Sequence of Bak (Q16611 2-211): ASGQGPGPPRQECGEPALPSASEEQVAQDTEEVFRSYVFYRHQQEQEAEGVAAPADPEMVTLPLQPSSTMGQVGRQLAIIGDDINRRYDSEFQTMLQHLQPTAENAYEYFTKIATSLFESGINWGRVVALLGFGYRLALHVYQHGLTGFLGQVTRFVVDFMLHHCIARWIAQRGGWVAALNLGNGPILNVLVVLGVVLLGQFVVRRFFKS

On to Bak (from UniProt Q16611), for which the dissociation constant (Kd) in the series with Bid BH3 (Homo sapiens) is 22700 nM.
On to Bcl-xL (from UniProt Q07817), for which the Kd with Bid BH3 (Homo sapiens) is 8.62 nM; with Pxt1 BH3 (Homo sapiens), 233 nM.

The Kd is the concentration at which binding is half-saturated.
